Results: US20030165986A1 (IMMUNEX, published 2003)

Biological target: T1, TACI ligand (TACI-L), expressed on transfected cells (Homo sapiens (Human), UniProt Q9Y275 1-285)
T1 construct: cDNA of TACI-L transfected into cells on slides and into CV1 cells (flow cytometry); also called Neutrokine alpha; TL5
Assay: slide binding assay on cDNA-transfected cells
Protocol: […] by adding 2 μg of the DNA encoding the members of the ligand family to a sterile tube and adding 75 μM choloroquine in transfection/growth medium to a final volume of 175 μl. 25 μl of DEAE-dextran (4 mg/ml in PBS) was then added to the DNA solution and mixed.
The growth medium was aspirated from the slides and replaced with 3 ml of 75 μM chloroquine in the transfectionfgrowth medium, followed by the addition of the DNA/DEAE-dextran mixture to the cells. The slides were rocked side-to-side and back-and-forth to distribute the precipitated DNA evenly. The slides were incubated at 37° C. for 4.5 hours.
To screen for positive pools expressing the cell-bound protein, slides were incubated with TACI:Fc and then with a radioiodinated protein probe (labeled goat anti-human Fc F(ab′)2) for 30 minutes at room temperature. The probe solution is then removed by aspiration and washed to remove the non-specifically bound probe. Finally, the slides were fixed by incubating each slide with 1 ml 2.5% glutaraldehyde in PBS for 30 minutes at room temperature to retain specifically bound label. The slides were then washed twice with 1 ml PBS and air-dried.

T1 sequence (Q9Y275 whole entry): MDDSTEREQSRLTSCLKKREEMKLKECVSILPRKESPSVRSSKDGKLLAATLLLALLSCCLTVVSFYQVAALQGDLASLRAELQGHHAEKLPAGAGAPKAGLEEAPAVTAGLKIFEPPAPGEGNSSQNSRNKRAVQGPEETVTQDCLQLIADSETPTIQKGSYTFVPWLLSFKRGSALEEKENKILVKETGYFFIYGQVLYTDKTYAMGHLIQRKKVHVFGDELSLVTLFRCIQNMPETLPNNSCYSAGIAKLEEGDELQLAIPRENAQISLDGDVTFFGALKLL

binding result: binds
B1: TACI-Fc (Fc fusion)
chain: SGLGRSRRGGRSRVDQEERFPQGLWTGVAMRSCPEEQYWDPLLGTCMSCKTICNHQSQRTCAAFCRSLSCRKEQGKFYDHLLRDCISCASICGQHPKQCAYFCENKLRSPVNLPPELRRQRSGEVENNSDNSGRYQGLEHRGSEASPALPGLKLSADQVALVYST
notes: also called HuTACI/Fc; Fc chimera; not shown: Fc portion of human IgG1, fused in-frame at the 3' end
